Results as given in patent US7851591 (Dana-Farber, dated 2010).

B1: I540-S, scrambled hTERT I540 peptide (HFLLWKLIA), negative control (peptide)
peptide: HFLLWKLIA
B2: A98-Id idiotype peptide (AHTKDGFNF), negative control (peptide)
peptide: AHTKDGFNF
notes: Only the start position aa98 is printed
B3: hTERT peptide R865 (RLVDDFLLV) (peptide)
peptide: RLVDDFLLV
notes: Only the start position aa865 is printed; the end of the range follows from the length of the nonapeptide
B4: hTERT peptide E555 (ELLRSFFYV) (peptide)
peptide: ELLRSFFYV
notes: Only the start position aa555 is printed; the end of the range follows from the length of the nonapeptide
B5: hTERT peptide I540 (ILAKFLHWL) (peptide)
peptide: ILAKFLHWL
notes: Only the start position aa540 is printed; the end of the range follows from the length of the nonapeptide; also called hTERT I540

Biological target: T1, human HLA-A*0201 (human)
T1 construct: In the T2 assay the MHC stands on the cell surface; also called HLA-A2
Assay: T2 cell assay: peptide plus beta2-microglobulin pulsed 18 h, HLA-A*0201 surface expression by flow cytometry with mAb BB7.2

Row | Binder | binding result
1 | B1 | no binding (tested: 50 µg/ml)
2 | B2 | no binding (tested: 50 µg/ml)

Biological target: T1, human HLA-A*0201
Assay: T2 cell assay, 50 µg/ml peptide plus 5 µg/ml b2m for 18 h, flow cytometry with mAb BB7.2; (MFI with peptide - MFI without)/MFI without

Row | Binder | Fluorescence Index
3 | B3 | 2.2
4 | B1 | 0.2
5 | B4 | 2.2
6 | B5 | 3.1
7 | B2 | 0
